Data reported in patent US7291332B2, “Inflammatory mediator antagonists” (SmithKline Beecham Corporation, priority 1998, dated 2007).

Assays:
L-selectin = target: T1, L-selectin (Homo sapiens, UniProt P14151); assay: Stimulation of PBMC via L-selectin: OSM secretion (ELISA); assay type: cell-based; conditions: 24 hr incubation
T1 construct: endogenous in cells; host or cells: human peripheral blood mononuclear cells (buffy coats)
T1 sequence (P14151 39-372): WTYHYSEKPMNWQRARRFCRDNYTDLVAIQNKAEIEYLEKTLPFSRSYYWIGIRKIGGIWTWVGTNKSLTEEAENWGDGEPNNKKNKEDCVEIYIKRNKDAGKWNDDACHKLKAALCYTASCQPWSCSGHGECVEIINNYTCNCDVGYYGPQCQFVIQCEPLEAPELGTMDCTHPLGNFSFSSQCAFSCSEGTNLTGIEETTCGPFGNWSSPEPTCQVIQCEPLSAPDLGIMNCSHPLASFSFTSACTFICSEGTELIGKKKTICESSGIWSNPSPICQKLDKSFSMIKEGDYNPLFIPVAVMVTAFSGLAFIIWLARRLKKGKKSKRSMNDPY
Description: Mononuclear cells were isolated from human buffy coats as described above. 5×10^5 cells were plated out in 0.5 ml volumes and incubated for 24 hr at 37° C., 5% CO2 with 60-80 kD M. wt. fucoidan (Sigma) anti-L-selectin monoclonal antibodies, LAM1-3 and TQ1 or an isotype matched control IgG antibody (all from Coulter). Supernatants were assayed for OSM using a specific ELISA assay (Quantikine, R&D Systems), according to the Manufacturer's instructions.
Mononuclear cells from healthy donors were incubated for 24 hrs with anti-human L-selectin antibodies, (either TQ1 or LAM-1), or an isotype-matched control antibody and culture supernatants assayed by ELISA for OSM. […] The ability of the L-selectin agonist fucoidan to induce OSM from mononuclear cell cultures was then investigated.

[1] = test system: OSM-induced sPAP release, HepG2 B6 cells; assay: HepG2 B6: OSM-induced sPAP assay; assay type: cell-based, human
Excerpt: A HepG2 cell line (ECACC) was stably transfected with six functional STAT3 response elements (REs) upstream of sPAP (secreted placental alkaline phosphatase) cDNA as described below to form HepG2B6. STAT3 (signal transducer and activator of transcription) is an intermediate in the IL-6 cytokine family […] signalling cascade. Following dimerisation of cell surface receptors STAT3 is phosphorylated and will then bind to DNA REs in the nucleus and activate DNA downstream, in this construct that DNA is sPAP. Thus this line can be driven to produce sPAP by overnight incubation in Oncostatin M.
HepG2 B6 cells were plated into 96 well plates to a final concentration of 3×10^4 cells per well in 100 μl of media (DMEM (Sigma), 10% HI FCS, 1% non-essential amino acids, 2 mM Glutamine, 500 μg ml^−1 G418, (all from Life Technologies)). Cells were allowed to equilibrate for 48 hours. Putative anti-OSM solid compounds were made up to a stock dilution of 20 mM in DMSO and serially diluted 1:3 in DMSO. This was then further diluted in HepG26B assay media, this is as above media but with 1% heat inactivated FCS, low alkaline phosphatase activity (Life Technologies) substituted for 10% HI FCS. Compounds were diluted 1:3 from a top concentration of […] to a final concentration of 0.09 μM in a final concentration of 1% DMSO. (That is 200, 66.67, 22.22, 7.41, 2.47, 0.82, 0.27, 0.09 and 0 μM). The old media was removed from the wells and replaced with diluted compound also containing 2 ng ml^−1 OSM (R&D Systems), cells were incubated for a further 20 hours. Each dilution was performed in triplicate. 20 μl of media was removed from each well and assayed for sPAP activity using pNPP (p-Nitrophenyl phosphate; Sigma), as a substrate. Endogenous alkaline phosphatase is blocked with L-homoarginine. Optical density of substrate is read at 405-650 nm. Concentration of compound is plotted against OD as a measure of sPAP produced and can be analysed to determine IC50 values.

[2] = test system: TNFα-induced sPAP release, A549 cells; assay: A549 cells: TNFα-induced sPAP assay; assay type: cell-based, human
Description: This assay used A549 cells that had been stably transfected with a reporter gene, comprising the cytokine responsive region of the E-selectin gene coupled to alkaline phosphatase (Ray et al., Biochem J. 328:707-715, 1997). This transfected cell line can be driven to produce sPAP by overnight incubation with TNFα.
A549 cells were plated into 96 well plates to a final concentration of 5×10^4 cells per well in […] of media. Cells were allowed to equilibrate for 24 hours. Putative anti-OSM solid compounds are made up to a stock dilution of 20 mM in DMSO and serially diluted 1:3 in DMSO. This was then further diluted in media (DMEM, 1% heat inactivated FCS, low alkaline phosphatase activity, 1% non-essential amino acids, 2 mM Glutamine, 500 μg ml^−1 G418, (all from Life Technologies), to give a concentration response of 0.09-200 μM in a final concentration of 1% DMSO. The old media was removed from the wells and replaced with diluted compound also containing 3 ng ml^−1 TNFα (R&D Systems), cells were incubated for a further 20 hours. Each dilution was performed in triplicate. 20 μl of media was removed from each well and assayed for sPAP activity using p-Nitrophenyl phosphate (Sigma), as a substrate. […] Optical density of substrate is read at 405-650 nm. Concentration of compound is plotted against OD as a measure of sPAP produced and can be analysed to determine IC50 values.

human blood monocytes = assay: OSM-induced TNFα secretion by interferon-γ pre-activated blood monocytes (ELISA); assay type: cell-based; conditions: co-incubated 8 hr with OSM, n=4 donors
Description: Human buffy coats (North London Blood Transfusion Centre) were diluted 1:3 with PBS, layered onto Lymphoprep (Nycomed UK) and centrifuged at 600×g for 30 minutes at room temperature. Harvested PBMC were washed 3 times in PBS, counted, and resuspended in 80 mls RPMI 1640/10% FCS at 5×10^6 cells/ml. 20 mls were put into each of four 175 cm^2 flasks and Incubated overnight at 37° C. to allow monocytes to adhere. Non-adherent cells were discarded and adherent cells scraped off after incubation with ice-cold versene at 4° C. for 15 minutes. Cells were washed twice in PBS, resuspended in RPMI 1640+10% heat inactivated human serum (Sigma) at 6.9×10^5/ml and 250 ul cell suspension placed into each well of 96-well flat bottomed plate (Costar). To half the plate was added 100 IU/ml IFNγ (Genzyme), the other half left as control. Plates were incubated overnight at 37° C., 5% CO2 prior to assay. […]
Importantly, TNFα induction was not due to contaminating endotoxin as pre-boiling of OSM completely ablated TNFα secretion (data not shown). […] Both cell types, when co-incubated for 8 hr with OSM, secreted TNFα, as measured by ELISA. […]

human blood macrophages = assay: OSM-induced TNFα secretion by blood macrophages (ELISA); assay type: cell-based; conditions: co-incubated 8 hr with OSM, n=3 donors
Description: (§1) Lyophilised, recombinant human oncostatin M (rhOSM) was purchased from R&D Systems diluted to 10 μg/ml in sterile PBS+0.1% BSA (Sigma) and aliquots stored at −20° C. until use. rhOSM, E. coli-derived LPS or CM were added to triplicate wells of macrophages, monocytes or Thp-1 cells, prepared as above and incubated for 7 hours at 37° C., 5% CO2. Supernatants were harvested and frozen at −20° C. until testing for TNFα protein by ELISA. In assays designed to co-assay for TNFα mRNA, cells were incubated as above for 4 hrs, washed once in PBS and lysed in RNA extraction buffer (RNAzole).
Importantly, TNFα induction was not due to contaminating endotoxin as pre-boiling of OSM completely ablated TNFα secretion (data not shown). Also, removal of OSM by immunoprecipitation using specific antibody abolished activity (data not shown). These findings were extended to include human blood monocytes, pre-activated with interferon-γ and human blood macrophages, differentiated in culture for 7 days. Both cell types, when co-incubated for 8 hr with OSM, secreted TNFα, as measured by ELISA. Mean TNFα secretion by monocytes was 1447 pg/ml (range 137-4709 pg/ml; n=4 donors) and 542 pg/ml by macrophages (range 62-1428 pg/ml; n=3 donors).

THP-1 cells = assay: OSM-induced TNFα production by PMA-differentiated THP-1 cells (ELISA, RT-PCR); assay type: cell-based, human
Description: Human pro-monocytic line THP-1 cells (ECACC) were passaged twice weekly in RPMI supplemented with 10% heat-inactivated FCS, 10 mM hepes, 1% non-essential amino acids (all from Sigma), 4 mM L-glutamine (Hyclone), 100 U/ml penicillin+100 μg/ml streptomycin (Hyclone) (complete medium, CM) and then PMA (Sigma) was added to washed cells at 1 ug/ml and Incubated at 37° C. for 30 minutes. Cells were washed ×3 in pre-warmed PBS, resuspended in CM and plated out at 1.5×10^5 cells/ml in 96-well flat bottomed plates (Costar). Plates were incubated for 48 hours at 37° C., 5% CO2, then washed with PBS, the media replaced, and incubated for a further 24 hours. Cells were washed ×1 in PBS before use.
as §1
RNA was detected as follows. Total RNA was prepared according to the manufacturer's instructions and stored at −80° C. in DEPC-treated water. For RT-PCR, approximately 1 ug of RNA was reverse transcribed using oligo dT priming (first strand cDNA synthesis kit, Pharmacia Biotech) and the resulting cDNA subjected to 30 cycles of PCR using the following primers for TNFα (Clontech amplimers): forward—[…], (SEQ ID 1) reverse-[…] CCAGAC (SEQ ID 2). The amplified product (444 bp) was separated by agarose gel (2%) electrophoresis and visualized by ethidium bromide staining.
The human pro-monocytic line THP-1, was induced to differentiate using PMA, washed thoroughly, and incubated with recombinant human OSM as described above. Culture supernatants were removed at 8 hours and assayed for TNFα production by specific ELISA (TNF Quantikine, R&D Systems) in accordance with manufacturers instructions. OSM induced a dose-related release of TNFα, measurable above 1 ng/ml OSM and maximal at 200-500 ng/ml, routinely reaching secreted levels of greater than 2500 pg/ml TNFα.

Bovine nasal cartilage = assay: Cartilage degradation assay (hydroxyproline/collagen release, MMP1)
Description: Bovine nasal septum cartilage was held at 4° C. overnight after slaughter. 2 mm diameter discs were cut from 2 mm slices and washed twice in HBSS. Three discs per well of a 24 well plate (Costar) were incubated at 37° C., 5% CO2 for 24 hrs in a 600 μl volume of DMEM (Sigma) containing 25 mM HEPES supplemented with 2 mM glutamine, 100 μg/ml streptomycin, 100 U/ml penicillin and 2.5 μg/ml amphotericin B (cartilage degradation medium, CDM). Cartilage was cultured in quadruplicate wells in either: 600 μl of CDM alone, 2, 10 or 50 ng/ml human recombinant TNFα alone, 10 ng/ml rhOSM alone (R&D systems) or TNFα+OSM and incubated for 7 days at 37° C., 5% CO2. Supernatants were harvested and replaced with fresh medium containing identical test reagents to day 1. […] The cumulative level of OH-proline released into the medium by day 14 was measured and expressed as the percentage of total released as set out below.
Hydroxyproline release was assayed (as a measure of collagen degradation) using a microtitre plate modification of the method in (Bergmann I and loxley R. (1963) Anal. Biochem. 35 1961-1965. Chloramine T (7%) w/v) was diluted 1:4 in acetate citrate buffer (57 g sodium acetate, 37.5 g tri-sodium citrate, 5.5 g citrate acid, 385 ml propan-2-ol per liter water). […] The plate was heated to 65° C. for 35 min, cooled and the absorbance at 560 nm determined. […]

## fucoidan
L-selectin
  OSM secretion by mononuclear cells: powerful stimulant of OSM secretion

## O=C(Nc1ncnc2[nH]ncc12)c1ccccc1 [GW 340442X, N-(1H-pyrazolo[3,4-d]pyrimidin-4-yl)benzamide]
[1]; HepG2 B6
  inhibition of OSM-induced sPAP release: concentration-dependent inhibition
[1]; Homo sapiens, HepG2, 2 ng/ml OSM, 20 hours, read-out: IC50, inhibition of OSM-induced sPAP release
  IC50: 0.3 µM
[1]; from sPAP IC50 values
  selectivity for OSM over TNFα: greater than 100 fold
[2]; A549 cells
  inhibition of TNFα-induced sPAP release: limited inhibition
[2]; Homo sapiens, A549, 3 ng/ml TNFα, 20 hours, read-out: approx. IC50, inhibition of TNFα-induced sPAP
  IC50: ~92 µM

B1: OSM: recombinant human oncostatin M purchased from R&D Systems (protein)
chain: AAIGSCSKEYRVLLGQLQKQTDLMQDTSRLLDPYIRIQGLDVPKLREHCRERPGAFPSEETLRGLGRRGFLQTLNATLGCVLHRLADLEQRLPKAQDLERSGLNIEDLEKLQMARPNILGLRNNIYCMAQLLDNSDTAEPTKAGRGASQPPTPTPASDAFQRKLEGCRFLHGYHRFMHSVGRVFSKWGESPNRSRRHSPHQALRKGVRRTRPSRKGKRLMTRGQLPR
Human blood monocytes
  Mean TNFα secretion by monocytes: 1447 pg/mL
Human blood macrophages
  Mean TNFα secretion by macrophages: 542 pg/mL
THP-1 cells; 4 hr with 100 ng/ml OSM, relative to unstimulated control cells
  Expression of TNFα message (RT-PCR): strongly increased
THP-1 cells; 8 hours
  OSM concentration above which TNFα release is measurable: above 1 ng/ml
  OSM concentration at which TNFα release is maximal: 200 to 500 ng/mL
THP-1 cells; PMA-differentiated THP-1, supernatants at 8 hours, at maximal OSM
  secreted levels of TNFα: greater than 2500 pg/ml
Bovine nasal cartilage; OSM alone at 10 ng/ml, day 14
  collagen release: did not induce collagen release
Bovine nasal cartilage; day 7, OSM 10 ng/ml, TNFα 50 ng/ml
  MMP1 secretion (total collagenase activity): neither OSM nor TNFα alone, used at 10 ng/ml or 50 ng/ml, respectively, induced significant MMP1 secretion
